Values belong to the binder of their own block, whether it stands above or below them.
Key:
TRIM14^CC-PSpry = target: T1, TRIM14^CC-PSpry (human, UniProt Q14142 59-442); assay: pull-down
T1 sequence (looked up): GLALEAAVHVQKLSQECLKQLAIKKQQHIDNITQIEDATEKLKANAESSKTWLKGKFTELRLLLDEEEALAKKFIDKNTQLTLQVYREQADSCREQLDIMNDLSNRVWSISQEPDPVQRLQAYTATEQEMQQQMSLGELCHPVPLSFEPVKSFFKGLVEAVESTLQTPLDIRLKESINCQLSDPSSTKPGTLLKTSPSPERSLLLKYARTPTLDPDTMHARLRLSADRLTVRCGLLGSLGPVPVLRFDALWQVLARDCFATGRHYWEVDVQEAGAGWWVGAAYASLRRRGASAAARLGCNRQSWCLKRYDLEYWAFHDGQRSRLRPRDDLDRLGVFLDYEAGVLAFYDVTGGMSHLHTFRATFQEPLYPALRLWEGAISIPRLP

LGP2 [1] = target: T2, LGP2 (human, UniProt Q96C10 1-678); assay: native gel or EMSA
T2 sequence (looked up): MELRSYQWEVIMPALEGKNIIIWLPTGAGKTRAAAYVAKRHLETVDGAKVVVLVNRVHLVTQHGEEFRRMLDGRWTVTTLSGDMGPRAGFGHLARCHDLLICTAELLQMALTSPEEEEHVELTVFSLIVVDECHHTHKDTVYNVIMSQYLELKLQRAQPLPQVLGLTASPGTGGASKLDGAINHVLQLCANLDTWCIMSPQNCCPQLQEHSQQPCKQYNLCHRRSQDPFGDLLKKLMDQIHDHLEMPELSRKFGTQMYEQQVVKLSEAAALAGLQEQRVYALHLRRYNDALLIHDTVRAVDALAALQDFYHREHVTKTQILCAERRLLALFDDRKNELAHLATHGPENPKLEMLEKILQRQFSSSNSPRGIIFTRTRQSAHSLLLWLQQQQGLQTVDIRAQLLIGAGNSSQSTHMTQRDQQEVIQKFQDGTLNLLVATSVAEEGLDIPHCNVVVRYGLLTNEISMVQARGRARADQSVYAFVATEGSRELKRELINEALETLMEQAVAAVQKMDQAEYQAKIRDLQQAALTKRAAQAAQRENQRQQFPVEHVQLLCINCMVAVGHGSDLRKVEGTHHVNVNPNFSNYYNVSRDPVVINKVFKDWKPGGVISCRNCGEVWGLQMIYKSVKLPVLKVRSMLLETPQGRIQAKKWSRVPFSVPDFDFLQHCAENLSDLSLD

[2] = target: T3, full-length MDA5, fluorescein-labelled (human, UniProt Q9BYX4 1-1025, fluorescein-conjugated peptide (LPETGG) joined to the N-terminus with sortase A); assay: native gel or EMSA
T3 sequence (looked up): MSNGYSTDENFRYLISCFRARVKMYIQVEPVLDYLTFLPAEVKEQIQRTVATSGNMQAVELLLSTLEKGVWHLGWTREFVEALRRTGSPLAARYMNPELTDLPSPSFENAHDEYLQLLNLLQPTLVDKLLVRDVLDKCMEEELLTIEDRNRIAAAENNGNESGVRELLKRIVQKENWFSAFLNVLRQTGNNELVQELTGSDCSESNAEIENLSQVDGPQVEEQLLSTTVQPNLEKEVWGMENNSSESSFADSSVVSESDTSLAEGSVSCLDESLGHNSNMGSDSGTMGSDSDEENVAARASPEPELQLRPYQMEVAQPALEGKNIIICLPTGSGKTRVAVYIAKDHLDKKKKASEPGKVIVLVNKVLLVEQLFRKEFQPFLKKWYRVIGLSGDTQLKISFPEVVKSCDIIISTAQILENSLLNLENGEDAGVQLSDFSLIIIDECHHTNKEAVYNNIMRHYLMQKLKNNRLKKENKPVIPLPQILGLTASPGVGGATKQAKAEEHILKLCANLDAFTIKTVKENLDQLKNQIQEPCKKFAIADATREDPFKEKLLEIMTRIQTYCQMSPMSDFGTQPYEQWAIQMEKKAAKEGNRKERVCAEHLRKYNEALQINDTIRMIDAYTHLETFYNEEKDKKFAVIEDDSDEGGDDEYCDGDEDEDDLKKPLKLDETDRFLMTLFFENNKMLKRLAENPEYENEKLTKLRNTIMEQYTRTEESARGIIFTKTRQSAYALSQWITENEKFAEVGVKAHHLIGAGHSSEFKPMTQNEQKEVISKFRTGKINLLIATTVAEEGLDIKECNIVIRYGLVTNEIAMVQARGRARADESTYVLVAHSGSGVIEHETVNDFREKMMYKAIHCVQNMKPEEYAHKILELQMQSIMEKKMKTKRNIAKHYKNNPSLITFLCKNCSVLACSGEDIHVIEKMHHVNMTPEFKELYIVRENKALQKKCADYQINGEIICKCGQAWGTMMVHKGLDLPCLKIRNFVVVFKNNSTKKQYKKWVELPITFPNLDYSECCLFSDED

[3] = target: T4, MDA5ΔN, fluorescein-labelled (human, UniProt Q9BYX4 287-1025, fluorescein-conjugated peptide (LPETGG) joined to the N-terminus with sortase A); assay: native gel or EMSA
T4 sequence (looked up): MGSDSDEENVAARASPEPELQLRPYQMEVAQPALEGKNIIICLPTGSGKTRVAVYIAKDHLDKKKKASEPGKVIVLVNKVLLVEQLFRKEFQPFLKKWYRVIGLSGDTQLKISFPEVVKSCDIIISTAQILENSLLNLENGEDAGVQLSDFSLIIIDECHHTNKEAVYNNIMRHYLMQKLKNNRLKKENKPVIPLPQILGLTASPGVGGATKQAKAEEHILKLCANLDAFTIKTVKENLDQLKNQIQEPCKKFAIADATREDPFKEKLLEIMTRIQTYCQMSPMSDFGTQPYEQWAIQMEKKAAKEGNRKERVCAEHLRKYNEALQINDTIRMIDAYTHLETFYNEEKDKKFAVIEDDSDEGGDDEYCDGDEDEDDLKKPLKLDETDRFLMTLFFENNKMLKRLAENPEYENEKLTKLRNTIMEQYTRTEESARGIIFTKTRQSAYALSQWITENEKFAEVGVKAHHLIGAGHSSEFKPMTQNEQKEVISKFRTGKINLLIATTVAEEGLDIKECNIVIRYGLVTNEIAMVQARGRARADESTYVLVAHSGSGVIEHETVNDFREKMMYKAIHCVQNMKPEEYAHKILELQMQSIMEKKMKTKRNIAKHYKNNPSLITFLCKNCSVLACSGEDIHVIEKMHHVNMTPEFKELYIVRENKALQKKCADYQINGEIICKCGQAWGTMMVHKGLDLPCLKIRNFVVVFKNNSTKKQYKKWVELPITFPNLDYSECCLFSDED

MDA5ΔN = target: T5, MDA5ΔN (human, UniProt Q9BYX4 287-1025); assay: native gel or EMSA
T5 sequence (looked up): T4 sequence (looked up)

LGP2 [4] = target: T6, LGP2 (UniProt Q96C10 1-678); assay: EMSA
T6 sequence: T2 sequence (looked up)

GST-MDA5ΔN = target: T7, GST-MDA5ΔN (human, UniProt Q9BYX4 287-1025); assay: native gel or EMSA
T7 sequence (looked up): T4 sequence (looked up)

SEC-MALS = target: the molecule itself; assay: SEC-MALS

B1: GST-LGP2^Hel2i2 (domain or fragment, human, UniProt Q96C10 211-487, looked up)
chain: SQQPCKQYNLCHRRSQDPFGDLLKKLMDQIHDHLEMPELSRKFGTQMYEQQVVKLSEAAALAGLQEQRVYALHLRRYNDALLIHDTVRAVDALAALQDFYHREHVTKTQILCAERRLLALFDDRKNELAHLATHGPENPKLEMLEKILQRQFSSSNSPRGIIFTRTRQSAHSLLLWLQQQQGLQTVDIRAQLLIGAGNSSQSTHMTQRDQQEVIQKFQDGTLNLLVATSVAEEGLDIPHCNVVVRYGLLTNEISMVQARGRARADQSVYAFVATEGS
binding result (TRIM14^CC-PSpry): binds

B4: 15 bp dsRNA (dsRNA)
RNA 1: AGGGCCCGGGAUGCU
RNA 2: AGCAUCCCGGGCCCU
binding result (LGP2 [4]): binds

B5: TRIM65 CC-PSpry, fluorescein-labelled (domain or fragment, human, UniProt Q6PJ69 125-517, looked up)
chain: HERALLDAERLKREAQLRASLEVTQQQATQAEGQLLELRKQSSQIQNSACILASWVSGKFSSLLQALEIQHTTALRSIEVAKTQALAQARDEEQRLRVHLEAVARHGCRIRELLEQVDEQTFLQESQLLQPPGPLGPLTPLQWDEDQQLGDLKQLLSRLCGLLLEEGSHPGAPAKPVDLAPVEAPGPLAPVPSTVCPLRRKLWQNYRNLTFDPVSANRHFYLSRQDQQVKHCRQSRGPGGPGSFELWQVQCAQSFQAGHHYWEVRASDHSVTLGVSYPQLPRCRLGPHTDNIGRGPCSWGLCVQEDSLQAWHNGEAQRLPGVSGRLLGMDLDLASGCLTFYSLEPQTQPLYTFHALFNQPLTPVFWLLEGRTLTLCHQPGAVFPLGPQEEVLS
modifications: fluorescein-conjugated peptide (LPETGG) joined to the N-terminus with sortase A
binding result (GST-MDA5ΔN): binds

The next lines start with results.

binding result (LGP2 [1]): binds
B2: GST-TRIM14^PSpry (domain or fragment, human, UniProt Q14142 238-442, looked up)
chain: QLSDPSSTKPGTLLKTSPSPERSLLLKYARTPTLDPDTMHARLRLSADRLTVRCGLLGSLGPVPVLRFDALWQVLARDCFATGRHYWEVDVQEAGAGWWVGAAYASLRRRGASAAARLGCNRQSWCLKRYDLEYWAFHDGQRSRLRPRDDLDRLGVFLDYEAGVLAFYDVTGGMSHLHTFRATFQEPLYPALRLWEGAISIPRLP

binding result [2]: binds
binding result [3]: binds
binding result (MDA5ΔN): binds
B3: TRIM65 (natural protein, human, UniProt Q6PJ69 1-517, looked up)
chain: MAAQLLEEKLTCAICLGLYQDPVTLPCGHNFCGACIRDWWDRCGKACPECREPFPDGAELRRNVALSGVLEVVRAGPARDPGPDPGPGPDPAARCPRHGRPLELFCRTEGRCVCSVCTVRECRLHERALLDAERLKREAQLRASLEVTQQQATQAEGQLLELRKQSSQIQNSACILASWVSGKFSSLLQALEIQHTTALRSIEVAKTQALAQARDEEQRLRVHLEAVARHGCRIRELLEQVDEQTFLQESQLLQPPGPLGPLTPLQWDEDQQLGDLKQLLSRLCGLLLEEGSHPGAPAKPVDLAPVEAPGPLAPVPSTVCPLRRKLWQNYRNLTFDPVSANRHFYLSRQDQQVKHCRQSRGPGGPGSFELWQVQCAQSFQAGHHYWEVRASDHSVTLGVSYPQLPRCRLGPHTDNIGRGPCSWGLCVQEDSLQAWHNGEAQRLPGVSGRLLGMDLDLASGCLTFYSLEPQTQPLYTFHALFNQPLTPVFWLLEGRTLTLCHQPGAVFPLGPQEEVLS

Kd (MDA5ΔN): 0.171 µM
B6: TRIM65 CC-PSpry (domain or fragment, human, UniProt Q6PJ69 125-517, looked up)
chain: B5 chain
stoichiometry N (SEC-MALS): 2
